Source: publication PMC3085951 (Journal of controlled release : official journal of the …, 2011)

T1: MT1-160p (MT1-MMP amino acids 160-174) (human)
T1 peptide: REVPYAYIREGHEKQ

B1: phage-displayed MT1-AF7p (peptide)
chain: HWKHLHNTKTFL
B2: MT1-AF7p (peptide)
peptide: HWKHLHNTKTFL

Legend:
[1] = target: T1, MT1-160p (MT1-MMP amino acids 160-174); assay: ELISA
[2] = target: recombinant human MT1-MMP catalytic domain (human, UniProt P50281 114-287); assay: ELISA

Binder | Kd [1] [nM] | Kd [2] [nM]
B1 | 0.075 | 
B2 |  | 47.4
